Assay [1] addresses human FcγRI (CD64) on cells (human) (UniProt P12314). The assay is described as follows: cell-based or functional assay.
Assay [2] has the same target. The assay is described as follows: flow cytometry, fluorescein-conjugated antibody on monocytes. (In general: Flow cytometry measures light scatter and fluorescence of single cells or particles in a stream.)
The target in assay [3] is soluble fusion protein of the extracellular domain of human FcγRI and human IgM heavy chain (sFcγRI-µ) (human) (UniProt P12314). The assay is described as follows: ELISA on captured sFcγRI-µ, against a nonspecific human IgG1 mAb. In general terms: In an ELISA, binding on a coated surface is turned into a signal by an enzyme label.

We go through four substances from patent EP1212366B1.

In assay [1], “M22 Fab' x 32.2 Fab' x M22 Fab' chemically linked trivalent antibody” yielded a FcγRI expression on monocytes in whole blood (modulation assay) (% of the level prior to BsAb treatment) of 50. In assay [1], “chemically linked M22 Fab' multimer M22 F(ab')3+” yielded a human CD64 surface expression on macrophages of CD64-transgenic mice (M32.2-FITC) of less than 50 % reduction.

With “humanized anti-FcγRI antibody H22 (KOL VH/REI Vκ mAb)”, the antibody sites per cell (antibody sites per cell) in assay [2] is 10500. This substance also returned a percent of binding via the Fv portion in assay [3] greater than 95%. Turning to “murine anti-FcγRI monoclonal antibody M22”, the antibody sites per cell (antibody sites per cell) in assay [2] amounted to 10000.
